According to patent US6150168:

Key:
[1] = molecular target: ASOR receptor (asialoglycoprotein receptor) on primary mouse hepatocytes (mouse) (UniProt P34927)
[2] = molecular target: ASOR receptor (asialoglycoprotein receptor) on primary mouse hepatocytes (mouse) (UniProt P34927); settings: scale: % conversion of phenylalanine to tyrosine
[3] = molecular target: ASOR receptor (asialoglycoprotein receptor) on primary mouse hepatocytes (mouse) (UniProt P34927); remark: listed apart in the source
[4] = molecular target: adenovirus receptor on primary mouse hepatocytes (mouse)
[5] = molecular target: ASOR receptor on HepG2 cells
[6] = molecular target: ASOR receptor (asialoglycoprotein receptor) on primary mouse hepatocytes (mouse) (UniProt P34927); remark: listed apart in the source

## ASOR/poly-L-lysine conjugate (ASOR/PLL conjugate)
[1]
  percentage of cells expressing β-gal, ASOR-PLL/DNA complexes with free adenovirus, in the presence of a 1000-fold excess of free ASOR: < 2 % of cells
  percentage of cells staining blue, complex containing adenovirus conjugated with PLL at high EDC concentrations, in the presence of a 1000-fold excess of free ASOR: < 30 % of cells
  percentage of cells staining positive for beta-gal, complex containing adenovirus conjugated with PLL at low EDC concentrations, in the presence of a 1000-fold excess of free ASOR: 80 % of cells
[2]
  phenylalanine hydroxylase activity (percent conversion of phenylalanine to tyrosine) in PAH deficient mouse hepatocytes after delivery of CMV/hPAH DNA in complex form with adenovirus: 26
[3]
  canine factor IX (cFIX) level in supernatants of primary mouse hepatocytes after delivery of pCMV/cFIX with the high EDC ADV-PLL/DNA complex (µg/10^6 cells/24 hours): 0.79

## adenovirus (d1312) conjugated with PLL at low EDC concentrations
[4]
  percentage of cells staining positive for beta-gal after delivery with the low EDC ADV-PLL/DNA complex, in the presence of a 1000-fold excess of free ASOR: 80 % of cells

## asialoorosomucoid (ASOR) (ligand)
[5]
  internalized ^3 H counts after a 2 hour incubation (dose-response of ^3 H-ASOR uptake) (molecules/cell): 150000
[6]
  internalized ^3 H counts after a 2 hour incubation (dose-response of ^3 H-ASOR uptake) (molecules/cell): 320000
